The test deals with T1, human MICA (on target cells: MICA over-expressing P815, MICA+ Nalm6, endogenous on A2058, K562, CaSki) (human, UniProt Q29983 24-383).
T1 sequence (looked up): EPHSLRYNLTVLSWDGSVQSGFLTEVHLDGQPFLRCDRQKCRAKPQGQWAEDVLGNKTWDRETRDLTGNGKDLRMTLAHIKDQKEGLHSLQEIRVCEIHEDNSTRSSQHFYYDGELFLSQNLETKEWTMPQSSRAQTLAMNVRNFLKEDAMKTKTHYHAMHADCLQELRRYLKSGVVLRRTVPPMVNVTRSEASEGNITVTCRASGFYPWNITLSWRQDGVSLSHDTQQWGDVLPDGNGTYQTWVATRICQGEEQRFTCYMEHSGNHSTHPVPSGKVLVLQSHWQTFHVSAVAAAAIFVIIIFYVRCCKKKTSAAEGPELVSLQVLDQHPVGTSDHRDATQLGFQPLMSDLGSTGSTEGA
The test can be described thus: cell-based or functional assay.

B1: MICA/B CAR (anti-MICA/B chimeric antigen receptor; version not stated for the experiment) (other)
VH: QIQLVQSGPELKKPGETVKVSCKASGYMFTNYAMNWVKQAPEKGLKWMGWINTHTGDPTYADDFKGRIAFSLETSASTAYLQINNLKNEDTATYFCVRTYGNYAMDYWGQGTSVTVSS
VL: DIQMTQTTSSLSASLGDRVTISCSASQDISNYLNWYQQKPDGTVKLLIYDTSILHLGVPSRFSGSGSGTDYSLTISNLEPEDIATYYCQQYSKFPRTFGGGTTLEIK
In the case of B1, the “EC50 of cytotoxicity (% Caspase 3/7+ target cells) of MICA/B CAR+ T cells on MICA+ Nalm6 cells over E:T ratios, 4 hours” value was ~1.9 E:T ratio and the “EC50 of cytotoxicity (% Caspase 3/7+ target cells) of MICA/B CAR+ iNK cells on P815 MICA+ cells over E:T ratios, 4 hours” value is ~5.2 E:T ratio.
